# PMC5043019, “Unique and Universal Features of Epsilonproteobacterial Origins of Chromosome Replication and DnaA-DnaA Box Interactions” (Frontiers in Microbiology, 2016)
# B1: Wolinella succinogenes DnaA protein (natural protein, W. succinogenes DSM 1740, UniProt Q7MSY2 1-437, looked up)
# chain: MLGDTTLKQLKDEISTLEYERYIKQLRYDEEASRTDLAVYIAPNQFIANWVKTKYGERLAHLFELSTGIRPKIEIRLGSLKKDVKSSSPKAGVSKGQKSTILNPSFTFDSFVVGNSNRFAYEVSQNVAKKQGIAYNPLLIYGGTGLGKTHLLNSIGNYNVAKGKSVIYVTSEQFLNDYLYHIRNNTMDRFRDKYRACDYLLIDDVQFFGGKPQIQEEFFHTFNELHNKNKQIVLTSDKTPKQIAGLEERLKSRFEWGMVSDIQPPELETKINIIKKKCEFDGIYLSNEIISYIATNMDNNIREIEGIIIKLNAYANLMNQEITLQFAKNVLKEQIKEERENITLENIIEVVSKELNVKPAEIKSKGRSKNIANARRIVIFLARTLTPNSMPSLAQFFGMKDHSSVSKAMKTVKTEIEEDANFKMVIEELKNKIKSRN
# notes: chromosomal replication initiator protein DnaA of Wolinella succinogenes DSM 1740, cloned from genomic DNA; Supplemented with 3 mM ATP for electron microscopy; also called W. succinogenes DnaA; source: purified as described in (Zawilak-Pawlik et al., 2006) with minor modifications (Supplementary Materials)
# B2: Arcobacter butzleri DnaA protein (natural protein, A. butzleri RM4018, UniProt A8EQT0 1-438, looked up)
# chain: MTTKEFLTIIQKEANQIDYERYLKQLVYKKVSSDNKIAIFEVNNKYIASWIKSKFTNLIQHCFEIYDGSKPTIEIKLSNEKKSKKEILKEQTQNESTESTILNPSYTFDSFVVGPSNQMAYNASLAVANKPGIQYNPLFIYGGTGLGKTHLLQAVGNHAIEKGNTVIYVTIEQFMNDFTFSIKNKNMEHFRNKYRKCDVLLIDDIQFLSGKEQTQEEFFHTFNELHNAKKQIVMTSDRLPSQIAGLVDRLKSRFEWGLTADVQIPGLETKIAIIEKKSELNGICLSREIINFIATNLDNSIREIEGVLIRINASASLLNQEITLPMVQGLLKEQIKETKENVKLPDIINIVANQLNIKPSDIKSKKRTATVANARRIVIYLVRELTHNSMPDIAKFLGMKDHSAISHNIKKANELIEKDENFKLIIENLKNKIINSRE
# notes: chromosomal replication initiator protein DnaA of Arcobacter butzleri RM4018, cloned from genomic DNA; Supplemented with 3 mM ATP for electron microscopy; also called A. butzleri DnaA; source: purified as described in (Zawilak-Pawlik et al., 2006) with minor modifications (Supplementary Materials)
# Target: the molecule itself
# Experiment: electron microscopy; purified DnaA (3 mM ATP) incubated with supercoiled plasmids carrying oriC1-dnaA-oriC2 (pAbori1ori2, pSdori1ori2, pWsoriori2); complexes stabilised by glutaraldehyde cross-linking, linearised with ScaI; looped DNA with one protein complex joining oriC1 and oriC2; DnaA molecules are DNA-bound
protein,measurement,value
B1,binding result,binds
B2,binding result,binds
